Measured values from US20080207488A1, “Method for Detecting Peptides Comprising a Cross-B Structure” (priority 2005, published 2008).
Blank lines part the entries; values can stand above or below the compound they belong to. Peptide text beside a SMILES is read from it.

How the values were obtained:
[1] = biological target: T1, LRP cl-IV binding to BSA-AGE (Bos taurus, UniProt P02769); experiment: ELISA, interference with LRP cl-IV binding to BSA-AGE; design: species or system human; details: concentration series, 50 times diluted LRP cl-IV medium
T1 construct: made in house; host or cells: LRP cl-IV: HEK293E/S culture supernatant, 50 times diluted; BSA-AGE: glycated in house and coated
Experimental: To test whether amyloid-like crossbeta structure binding compounds tPA, Congo red, Thioflavin T and Thioflavin S interfere with LRP cl-IV binding to BSA-AGE, concentration series of the potential inhibitory amyloid binding moieties were tested in the presence of 50 times diluted medium containing LRP cl-IV. The following inhibitors were used: tPA, Congo red, Thioflavin T (ThT) and Thioflavin S (ThS). As a control to tPA, K2P tPA, which lacks the amyloid-like misfolded protein binding finger domain, was included in the analyses. The influence of tPA and K2P tPA was tested in the presence of 10 mM ε-amino caproic acid to avoid binding of the kringle2 domain of tPA and K2P tPA to lysine- and arginine residues. Binding buffer and K2P tPA served as negative controls in these inhibition studies. The concentration series was measured in triplicate, the values averaged and standard deviations calculated. Background signals obtained with buffer-coated wells were subtracted. Signals obtained with binding of LRP cluster IV to BSA-AGE was set arbitrarily to a reference binding of 100% and signals obtained with the concentration series of misfolded protein binding moieties and K2P tPA were calculated based on this set reference.

[2] = biological target: T2, factor XII (Homo sapiens, UniProt P00748); experiment: Chromogenic factor XII/prekallikrein activation assay (Chromozym-PK); assay type: biochemical; details: peptide aggregates and surfaces
T2 construct: purchased Calbiochem, EMD Biosciences #233490
T2 sequence (P00748 20-615): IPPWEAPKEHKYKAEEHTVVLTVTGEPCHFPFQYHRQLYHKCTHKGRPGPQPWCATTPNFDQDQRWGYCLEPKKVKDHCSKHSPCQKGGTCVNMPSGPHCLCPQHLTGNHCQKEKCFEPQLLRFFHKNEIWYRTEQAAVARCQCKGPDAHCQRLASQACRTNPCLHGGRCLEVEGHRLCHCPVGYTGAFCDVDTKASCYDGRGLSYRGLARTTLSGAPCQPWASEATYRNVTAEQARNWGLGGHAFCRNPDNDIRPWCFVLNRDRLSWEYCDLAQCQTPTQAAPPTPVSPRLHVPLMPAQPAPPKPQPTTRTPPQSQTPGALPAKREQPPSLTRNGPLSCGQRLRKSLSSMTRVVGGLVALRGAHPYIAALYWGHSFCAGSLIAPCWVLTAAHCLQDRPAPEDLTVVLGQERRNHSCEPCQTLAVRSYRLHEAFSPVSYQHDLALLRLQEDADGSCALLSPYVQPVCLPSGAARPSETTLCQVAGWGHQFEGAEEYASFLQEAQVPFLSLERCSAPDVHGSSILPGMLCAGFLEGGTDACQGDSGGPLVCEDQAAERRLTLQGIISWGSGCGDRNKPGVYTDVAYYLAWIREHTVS
Experimental: (§1) Plasmin (Pls) activity was assayed as described^7. Peptides and proteins that were tested for their stimulatory ability were regularly used at 100 μg ml^−1. […] Chromogenic substrate S-2251 (Chromogenix, Instrumentation Laboratory SpA, Milano, Italy) was used to measure Pls activity. Conversion of zymogen factor XII (#233490, Calbiochem, EMD Biosciences, Inc., San Diego, Calif.) to proteolytically active factor XII (factor XIIa) was assayed by measurement of the conversion of chromogenic substrate Chromozym-PK (Roche Diagnostics, Almere, The Netherlands) by kallikrein. Chromozym-PK was used at a concentration of 0.3 mM. Factor XII, human plasma prekallikrein (#529583, Calbiochem) and human plasma cofactor high-molecular weight kininogen (#422686, Calbiochem) were used at concentrations of 1 μg ml^−1. […] Assays were performed using microtiter plates (Costar, Cambridge, Mass., USA). Peptides and proteins were tested for their ability to activate factor XII. 150 μg ml^−1 kaolin, an established activator of factor XII was used as positive control and solvent (H2O) as negative control. The conversion of Chromozym-PK was recorded kinetically at 37° C. for at least 60 minutes. Assays were done in duplicate. […] Alternatively, chromogenic substrate S-2222 (Chromogenix) was used to follow the activity of factor XII itself. With S-2222, activation of factor XII in plasma was measured, using 60% v/v plasma, diluted with substrate and H2O with or without potential cofactor. Furthermore, auto-activation of factor XII was measured by incubating 53 μg ml^−1 purified factor XII in 50 mM Tris-HCl buffer pH 7.5 with 1 mM EDTA and 0.001% v/v Triton-X100, with S-2222 and H2O with or without potential cofactor.
(§2) Formulated protein therapeutics were obtained from the local hospital pharmacy and were used as supplied by the manufacturers. […] Lyophilized therapeutics were dissolved according to the manufacturers recommendations. […] Other protein therapeutics were only kept at 4° C., and assayed for the presence of cross-β structure conformation at shown time points. Enhancement in fluorescence of ThT and Congo red was measured with all formulated protein therapeutics. For this purpose, proteins were diluted to the indicated concentrations. […] Zinc-insulin was diluted tenfold in the activation assay, GH was diluted to a final concentration of 500 μg ml^−1. Activation of factor XII and prekallikrein by the therapeutics was tested in the chromogenic factor XII assay (see above). […] After coating, plates were blocked with Blocking Reagent (Roche Diagnostics, Almere, The Netherlands).

[3] = biological target: T3, human BiP (Homo sapiens, UniProt P11021); experiment: ELISA, binding of BiP to coated (mis)folded proteins; details: coated protein
T3 construct: made in house; host or cells: HEK293E cells, transient transfection, protein purified from the medium
Experimental: (§3) The plates were blocked using Blocking reagent (Roche 1112589). A dilution series of the protein of interest was applied to the coated proteins and wells were subsequently washed using TBS-T (50 mM Tris pH 7.3, 150 mM NaCl and 0.1% Tween20). Bound protein is detected by the FLAG-tag using 1:3000 anti-FLAG-HRP (Sigma A-8592) in PBS-T, or by 1:1000 Ni-NTA-HRP (Qiagen 34530) in PBS-T. The HRP reaction Is performed using the TMB substrate (Biosource 4501103 or Tebu Bio 101TMB100-500), stopped using 10% H2SO4 and absorbance was measured at 450 nm.

[4] = biological target: T4, tPA (Homo sapiens, UniProt P00750); experiment: Plasminogen-activation assay (tPA-mediated Plg to Pls, S-2251); assay type: biochemical; details: FIG. 6E, G
T4 construct: purchased Boehringer-Ingelheim (Actilyse, Alteplase)
Experimental: as §1, §2
Purification of β2-glycoprotein I (β2GPI) was performed according to established methods^11,12. Recombinant human β2GPI was made using insect cells and purified as described^11. Plasma derived β2GPI as used in a factor XII ELISA, the chromogenic Plg-activation assay and in the anti-phospholipid syndrome antibody ELISA (see below), was purified from fresh human plasma as described^12.
(§4) To prepare structurally altered ovalbumin (OVA) with amyloid cross-β structure conformation, purified OVA (Sigma, A-7641, lot 071k7094) was heated to 85° C. One mg ml^−1 OVA in 67 mM NaPi buffer pH 7.0, 100 mM NaCl, was heated for two cycles in PCR cups in a PTC-200 thermal cycler (MJ Research, Inc., Waltham, Mass., USA). In each cycle, OVA was heated from 30 to 85° C. at a rate of 5° C./min. Native OVA (nOVA) and heat-denatured OVA (dOVA) were tested in the ThT fluorescence assay and in the Plg-activation assay. In the fluorescence assay and in the Plg-activation assay, 25 and 100 μg ml^−1 nOVA and dOVA were tested, respectively. TEM images of nOVA and dOVA were taken to check for the presence of large aggregates. […] MSA (#126674, Calbiochem) was dissolved in 8 M urea, 100 mM Tris-HCl pH 8.2, at 10 mg ml^−1 final concentration.

[5] = Thioflavin T fluorescence; assay type: physicochemical; details: 25 μg ml^−1
Experimental: Fluorescence of ThT-protein/peptide adducts was measured as follows. […] Fluorescence was measured at 485 nm upon excitation at 435 nm. Background signals from buffer, buffer with ThT and protein/peptide solution without ThT were subtracted from corresponding measurements with protein solution incubated with ThT. […] Fluorescence was measured in triplicate on a Hitachi F-4500 fluorescence spectrophotometer (Ltd., Tokyo, Japan).
as §2
as §4, with “concentration. Dithiothreitol (DTT) was added to a final concentration of 10 mM. Air was replaced by N2 and the solution was incubated for 2 h at room temperature. Then, the solution was transferred to ice and iodoacetamide was added from a 1 M stock to a final concentration of 20 mM. […] Alkyl-MSA was dialyzed against H2O before use. […] In the ThT-fluorescence assay 25 μg ml^−1 nMSA and alkyl-MSA were tested, and in the Plg-activation assay 100 μg ml^−1 was tested. The presence of aggregates or fibrils was analyzed using TEM. […]” for “concentration.”
Protein therapeutics were obtained from the local hospital pharmacy and analyzed within the expiry limits as stated by the manufacturers.

[6] = biological target: T5, human fibronectin finger 4,5 (Fn F4,5) fragment (Homo sapiens, UniProt P02751); experiment: ELISA, binding of fibronectin F4,5 to coated (mis)folded proteins; details: coated protein, FIG. 7D-H
T5 construct: human fibronectin finger 4,5 (Fn F4,5) fragment; made in house; host or cells: HEK293E cells, transient transfection, protein purified from the medium
Experimental: as §3

T1 sequence (P02769 25-607): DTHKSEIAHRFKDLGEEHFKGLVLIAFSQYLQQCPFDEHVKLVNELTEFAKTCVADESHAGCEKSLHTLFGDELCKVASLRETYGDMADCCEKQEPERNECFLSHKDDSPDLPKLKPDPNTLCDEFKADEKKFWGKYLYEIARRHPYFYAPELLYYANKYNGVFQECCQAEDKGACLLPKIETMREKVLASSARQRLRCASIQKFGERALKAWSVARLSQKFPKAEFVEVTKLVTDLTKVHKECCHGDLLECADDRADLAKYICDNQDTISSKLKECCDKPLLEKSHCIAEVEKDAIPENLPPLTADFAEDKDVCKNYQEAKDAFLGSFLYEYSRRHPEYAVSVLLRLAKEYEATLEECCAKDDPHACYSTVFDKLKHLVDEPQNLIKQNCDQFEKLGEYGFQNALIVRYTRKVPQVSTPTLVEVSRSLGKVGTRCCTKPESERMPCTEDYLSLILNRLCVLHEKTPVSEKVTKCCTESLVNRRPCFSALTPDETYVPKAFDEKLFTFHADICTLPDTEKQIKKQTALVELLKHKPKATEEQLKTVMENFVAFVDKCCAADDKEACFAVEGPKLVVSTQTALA
T4 sequence (P00750 36-562): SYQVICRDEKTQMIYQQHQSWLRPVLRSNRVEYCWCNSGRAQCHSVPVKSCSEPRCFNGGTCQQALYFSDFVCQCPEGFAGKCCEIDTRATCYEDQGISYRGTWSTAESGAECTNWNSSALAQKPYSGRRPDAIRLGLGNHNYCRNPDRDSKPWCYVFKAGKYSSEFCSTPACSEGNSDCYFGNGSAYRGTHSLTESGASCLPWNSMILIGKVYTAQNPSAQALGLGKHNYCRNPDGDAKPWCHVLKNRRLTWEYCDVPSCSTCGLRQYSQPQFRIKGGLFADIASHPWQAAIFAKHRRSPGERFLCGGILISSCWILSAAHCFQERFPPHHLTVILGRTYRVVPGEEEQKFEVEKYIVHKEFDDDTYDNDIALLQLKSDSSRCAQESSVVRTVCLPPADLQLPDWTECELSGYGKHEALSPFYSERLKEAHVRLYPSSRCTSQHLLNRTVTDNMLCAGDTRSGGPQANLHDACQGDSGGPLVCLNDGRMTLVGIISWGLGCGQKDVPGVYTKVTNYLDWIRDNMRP
T3 sequence (P11021 19-654): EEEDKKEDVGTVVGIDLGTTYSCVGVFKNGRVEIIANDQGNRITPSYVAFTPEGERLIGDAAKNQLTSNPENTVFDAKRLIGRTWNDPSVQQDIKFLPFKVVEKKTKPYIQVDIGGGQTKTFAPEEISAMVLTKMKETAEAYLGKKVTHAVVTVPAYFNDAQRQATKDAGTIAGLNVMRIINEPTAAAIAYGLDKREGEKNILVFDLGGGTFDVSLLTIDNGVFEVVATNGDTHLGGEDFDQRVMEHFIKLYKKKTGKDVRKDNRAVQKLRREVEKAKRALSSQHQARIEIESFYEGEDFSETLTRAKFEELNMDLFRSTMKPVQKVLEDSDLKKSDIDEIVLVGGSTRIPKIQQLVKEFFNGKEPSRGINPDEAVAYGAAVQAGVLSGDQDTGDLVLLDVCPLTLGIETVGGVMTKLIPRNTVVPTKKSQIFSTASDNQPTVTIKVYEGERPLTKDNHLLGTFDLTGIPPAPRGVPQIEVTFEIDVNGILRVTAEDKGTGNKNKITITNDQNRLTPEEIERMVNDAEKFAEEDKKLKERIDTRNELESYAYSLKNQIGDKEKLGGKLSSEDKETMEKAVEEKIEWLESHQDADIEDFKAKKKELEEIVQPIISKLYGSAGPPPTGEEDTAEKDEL
T5 sequence (P02751 182-276 limits assumed): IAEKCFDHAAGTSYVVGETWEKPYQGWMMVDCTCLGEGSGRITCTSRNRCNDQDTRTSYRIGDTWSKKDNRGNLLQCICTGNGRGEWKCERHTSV

Compound: Nc1c(/N=N/c2ccc(-c3ccc(/N=N/c4cc(S(=O)(=O)O)c5ccccc5c4N)cc3)cc2)cc(S(=O)(=O)O)c2ccccc12 [Congo red]
influence on binding of LRP cl-IV to BSA-AGE [1]: inhibit binding of LRP cl-IV to BSA-AGE to a large extent

factor XII activation (kallikrein, Chromozym-PK conversion) [2]: stimulate the activation of factor XII
Compound: CC[C@H](C)[C@H](NC(=O)CNC(=O)[C@@H](NC(=O)[C@H](CC(=O)O)NC(=O)[C@@H](NC(=O)[C@H](CC(=O)O)NC(=O)[C@@H](NC(=O)[C@H](CCC(=O)O)NC(=O)[C@H](CC(C)C)NC(=O)[C@H](CCCNC(=N)N)NC(=O)[C@@H](N)CCCCN)C(C)C)[C@@H](C)CC)[C@@H](C)CC)C(=O)N[C@@H](CCCNC(=N)N)C(=O)N[C@@H](CO)C(=O)O [FP13 K157G] (H-KRLEVDIDIGIRS-OH)

influence on binding of LRP cl-IV to BSA-AGE [1]: do not interfere
Compound: Cc1ccc2c(c1)sc(-c1ccc(N(C)C)cc1)[n+]2C [ThT, Thioflavin T]

Compound: Thioflavin S [ThS]
influence on binding of LRP cl-IV to BSA-AGE [1]: inhibit binding of LRP cl-IV to BSA-AGE to a large extent

binding of BiP (detection anti-FLAG-HRP) [3]: not
Compound: heat-denatured BSA: heat-denatured bovine serum albumin

tPA activating potential of native and denatured glucagon and Etanercept [4]: potent activator of tPA
Compound: heat-denatured glucagon: glucagon kept at 37° C. at low pH in HCl
ThT fluorescence enhancement of native and denatured proteins [5]: enhanced ThT fluorescence to a large extent

factor XII activation (kallikrein, Chromozym-PK conversion) [2]: do not activate factor XII
Compound: mIAPP: non-amyloid control peptide

affinity of fibronectin F4,5 (detection anti-FLAG HRP) [6]: high affinity
Compound: reduced and alkylated lysozyme: reduced and alkylated lysozyme
